Data published in patent publication US20180171313A1 (NOVOZYMES A S, published 2018).

Target: T1, chaperone fusion protein (Chap-MBP): 6x histidine tag, E. coli maltose binding protein, linker and mature G. … (Gallaecimonas pentaromativorans …)
T1 construct: also called LIF
Experiment: lipase refolded with the chaperone fusion protein, examined as the complex by differential scanning calorimetry
Method: Sample- and reference-solutions (approx. 0.2 ml) were loaded into the calorimeter (reference: buffer without enzyme) from storage conditions at 10° C. and thermally pre-equilibrated for 20 minutes at 20° C. prior to DSC scan from 20° C. to 100° C. Denaturation temperatures were determined at an accuracy of approximately +/−1° C.
In complex with the chaperone fusion protein, the thermostability of the lipase was high with a Td value in the range of 79.9-94.1° C. In a non-parallel trial under similar experimental conditions the thermostability of Lipolase was measured to have a Td value of 77.0° C.

B1: Gallaecimonas pentaromativorans lipase (lipase of the invention), mature part (enzyme)
chain: SGYTQTKYPIVLVHGLFGFDSLAGVDYWYGIPQALSQDGATVYVVNVSAANSTEVRGEQLLVQIDNILALTGAKKVNLIGHSHGGPTARYAASISPGKVASVTSVGGVNWGSRFADALRGTIAPGSVSESVIGAAANAFSSIIEFLSGTPADPQDSVAALNALTTAGSLAFNASYPEGMPSQYCGQGQMQAANGVYYFSWSGASPLTNVLDVTDAALGLTSLVFGESNDGLVSSCSSHLGKVIRDDYAMNHLDEVNQTFGLVSLFETNPKTLYRNQANRLKNLGL
notes: The forward primer adds an ATG start codon through its NdeI site; also called G. pentaromativorans lipase
binding result: binds
